Reference: the DeepSol protein solubility set

test: soluble on expression in E. coli; label from the status in PepcDB or PDB records

Row | Sequence | soluble on expression in E. coli
1 | MDKRIENAMNELINTEIWSTGLYLSLQVYFEDERLPILSSWLNSQAQDNMNKVYQMMNRICHDGGCVVINEMKRDTHEWTTPLNALNELLEHEQYISRQVNTFLILCWNVSMSFHSFISGLYADRIYVSTAFMELLRILAKENERKLPYF | not soluble
2 | MDKSKINFNYQSRAVYSANPQTSRGRLFHETMNTLRSPFQRDRDRIIHSNAFRRLKHKTQVFIADESDHYRTRLTHSIEVSQIARTLARALYLDEDLAESIALVHDFGHTPFGHAGEDALNEAMAPYGGFDHNAQALRIVTKLEQRYANFDGLNLTWETLEGLVKHNGPLLGPYAKNKDIPIDILQYNAKQDLQLNCFAGLEAQCAAIADDIAYNAHDVDDGLRSQFLTLDQFEQVSLTAALLNDIKKEHPQLDQTRRGYTLVRRQIKTMVEDVIKQSQENLARVKPKSISDVHQAEQTIVTFSPTMAVYERELKDFLFKNLYYHDQVLNRRNAAKRIVQKLFECYYENPDVMPENWHNKTAHLTNQELARLIADFLSGMTDHYALREYQHLFDCTDNFI | not soluble
3 | MDLDADFLLLHLSDSALPTGAFAHSFGFETYMDAERITNAEEFQDWLKVLLKVQLTSSDALAMRMFYATPTVSELKRLDERLFAGTPAREIREANARMGTRMAEIVAETYSVPLIVEYLELIQHRELSGHPALALALATHSAGIDVDRAIHAHLTATVSSLIQNAVRGIPLGQMAGQRVMFAMREHIGAAVKRSANLDEIDFCSGDPGLDISQMVHETQRARLFMSLEHHHHHH | not soluble
4 | MDLKSTKKTWKIPSFNQMWGKITSHIGVWFGLEEAERPMRASCSLSMIHHPQLTAVRSSKSSENLHRITTMSPQRIQDVDGSPSTRKPSSSIFTLRRSRNKEKKYKNNGGGGSTKSPISKNGTNEMTQSWHSNHVNGASSGSGSGSTPEHHNKNIFSFLSRQSRSRSNNPSETMSTVPLNKNSPSMPPPPSSNTVADFTHLRRRRPRSAHYDPNTITLPAKEEVTPQDVNDLYKRIDKLGEGSYATVYKCESKLDGSIVALKEIKLQFQEGLPFTAIREASLLRNLRHANIVSLHDIFYQHHQLTFVFEYMKMDLSKYLEQNVYGLDSIDIKLLLFQLLRGLDFCHRKKILHRDLKPQNLLLDEDGVLKLADFGLARAKSVPSRTYSHEVVTLWYRPPDVLMGSTDYSTSLDMWGVGCIFAEICTGAALFPGSKDSHYPGTKDQLDMIFSIRGTPDEKKWPEVKTLPGYTPELFPRYRELSFIAVNPMFTKILKTGQELLGMLLQLRPESRVSAASAMLHPYFASFPREVHLLAPSQSIFRLKELKDLRSL | not soluble
5 | MDLTHFQDGRPRMVDVTEKPETFRTATAEAFVELTEEALSALEKGGVGKGDPLVVAQLAGILAAKKTADLIPLCHPLPLTGVEVRVELLKAEKRVRIEATVKTKAETGVEMEAMTACAVAALTVYDMLKAASKGLVISQVRLLHKAGGKSGEWRREQ | soluble
6 | MDLTQLEMFNAVAEAGSITQAAAKVHRVPSNLTTRLRQLETELGVDLFIRENQRLRLSPAGHNFLRYSQQILALVDEARSVVAGDEPQGLFSLGSLESTAAVRIPATLAEFNRRYPKIQFSLSTGPSGTMLDGVLEGKLNAAFIDGPINHTAIDGIPVYREELMIVTPQGYAPVTRASQVNGSNIYAFRANCSYRRHFESWFHADGAAPGTIHEMESYHGMLACVIAGAGIALIPRSMLESMPGHHQVEAWPLAEQWRWLTTWLVWRRGAKTRPLEAFIQLLDVPDSARQGYQ | soluble
7 | MDMEVDEAISGTSSSRLAPIEEVKPTPKQIKRIAAHSHVKGLGIDTETQEAHYEAAGFVGQAPARTAASIVVDMIRLKCMAGRAVLIAGPPATGKTAIALAMSQELGDGVPFVPLVASEVFSNEVKKTEVLMRSFRRAIGLRVKETKDVYEGEVTELSPVEASDNSGMGKTISHLVLSLKTAKGSKQLKLDPSIYDSILKQRVEVGDVIYIEANSGIVKRVGRCDVYASEFDLEADEFVPMPKGDVRKSKDIVQNVSLHDLDIANARPQGRQGDVSNIVSQLMTPKKTEVTDRLRSEINKVVNEYIESGVAELMPGVLFIDEVHMLDVECFTYLYRALESPMAPVVVFATNRGTTTVRGLGDKAPHGIPPEMLDRLMIIPTMKYNEEDIRKILVHRTEAENVQFEEKAFDLLTRLCAQTCGREVIEVEDVDRCTKLFMDRGESLKKAEEEMRQPKNKK | not soluble
8 | MDNFMDYIYRDFHIMQQTYATLVSVNNKIQIQTDKYSDNITSRQYMTILAIFHLPEDETTLNNIAKKLGTTKQNIKQIINILEGKGYVQTMPSKQDKRAINVSVTKEGWQVAESYAEKSFELFGDIFNDFSVEEMKILWMLLKKLYRFDGEEQDGFEEDANPSGELTEEQIEMAEAFARRRREKYGSK | not soluble
9 | MDNGWPNLQTLALFVAIVEEGSLGAGARKVGMAQPNASRAIAELEADMKAELLVRHPRGSHPTAAGLALVEHSRDLLQSVQEFTEWVTEGRTEQPLKLHVGASMTIAEALLPAWVADMRTRFPACRVDVSVMNSSQVIEAVQKGHLQLGFIETPHVPVRLHARVVQEDKLIVVISPNHEWANRTGRISLRELSETPLIVREVGSGTREALQELLADYDMAEPIQVLNSNAAVRVVVEAGAGPAVLGELALRDHLALGRLLSVPFEGSGVTRPLTAVWSGPRRLPILAGELVSIASNHI | not soluble
10 | MDNKLDVFRRELVDVEGIPLFWSIAEHWSQVESFEARPDDILISTYPKSGTTWVSEILDLIYNNGDAEKCKRDAIYKRVPFMELIIPGITNGVEMLNNMPSPRIVKTHLPVQLLPSSFWKNDCKIIYVARNAKDVVVSYYYFYQMAKIHPEPGTWEEFLEKFMAGQVSFGPWYDHVKSWWEKRKEYRILYLFYEDMKENPKCEIQKILKFLEKDIPEEILNKILYHSSFSVMKENPSANYTTMMKEEMDHSVSPFMRKGISGDWKNQFTVAQYEKFEEDYVKKMEDSTLKFRSEI | soluble
11 | MDNLNVFANEDNQVNDVKPPPPPPRVCARCDSDNTKFCYYNNYCEFQPRYFCKNCRRYWTHGGALRNIPIGGSSRAKRARVNQPSVARMVSVETQRGNNQPFSNVQENVHLVGSFGASSSSSVGAVGNLFGSLYDIHGGMVTNLHPTRTVRPNHRLAFHDGSFEQDYYDVGSDNLLVNQQVGGYGYHMNPVDQFKWNQSFNNTMNMNYNNDSTSGSSRGSDMNVNHDNKKIRYRNSVIMHPCHLEKDGP | not soluble
12 | MDNRNHSANVLIHLHMPKTGGTTLKKIIKRNYDSRKSVDVYEEHHKLPGIFKGLSKQNIECVQGHLPFGVHEYFNRPTTYITMLRDPVDRVISEYYFIRNIEWHNLHESVMKMSLEEYQGLPKNRNLQTRYILGGQLTSVTEVNRAKNILKNHFAVVGLTEKFDASLFLMKEMFNWKQVAYQKYNVTKKRRSKEEISPKLLEKIAKNNEADLELYAFAKELLAKRIRALDPLSAYRLKRFERKHQQGFHGKRDRMAGDPLEHHHHHH | soluble
13 | MDNRSASLHSDIDTVLNNYDYDFAEVEIAVLGNGHINNTYKLTTPEVEFVLQQINHDVFPKTAELSSNAQKINLHLQRQKNIGNYPLSIPQQILSKTGETYSKVGTNYWRLMEFISNSYTLEEVESPEQAALVANAFAEFSCTLSDFPVEELAVIIEDFHDISFRMRQLNEAVENDLQDRLSSCQTLVNFCLDQQDFINHVIDISKKLPLHVTHNDTKINNLLFTEGDTPCAVIDLDTCMPGLLMHDFGDMVRTCCSNLAEDDTNIDAMIIKLDIFSALIQSYQNAFGTKMSALEKDSLIVGTKSVPFSLGTRFLTDYLNGDSYFQVSREKHNLDRAFNQIQLFILLCEAEPELIKLAMQALEHHHHHH | not soluble
14 | MDPAEVEFLAEKEMVKIIPNFSLDKIYLIGGDLGPFNPGLPVEVPVWLALNLKQRQKCRIVPPEWMDTDKLEDIREQERKLDTFTPIPNPYYMELTKLLLNHAADNIPKADEIRTLVKDIWDTRMAKLRLSADSFISQQEAHAQLDNLTLMEINTTRSFLLDSLNYMYKLRSNLQPGRSKDY | not soluble
15 | MDPKRWWEKQEDIVISKDQIPRCDNKEVKMFGGMLLACDDVVTEDQLSWAPGFTDLPKKRGKKKDLNKFDAGILPGTSKQNNPMDPQVRLLLEASWEAMVDAGINPRGLRGSQIGDFDECATPGTSGTQKQNPVTEMGCIMSDTVPSMFSNRISYTFDLQGPSHSADKINFSTKKRMTKLRNRNSIV | not soluble
